Here are results for seven substances from article PMC4499159.

For orientation: stoichiometry N means the number of molecules, sites or subunits per partner or assembly. In general, EC50 refers to the concentration at which the effect is half-maximal.

The target of series [1] is AP endonuclease 1 (APE1) (human) (UniProt P27695). Description: fluorescence titration. The conditions noted are these: 50 mM HEPES pH 8.0, 100 mM NaCl, 4 mM DTT (+10 mM EDTA for APE1); labelled protein from 20 nM; temperature not stated.
The target of series [2] is DNA polymerase beta (Polβ) (rat) (UniProt P06766). Description: fluorescence titration. Conditions: 50 mM HEPES pH 8.0, 100 mM NaCl, 4 mM DTT (+10 mM EDTA for APE1), labelled protein from 20 nM, temperature not stated.
Series [3] concerns the target XRCC1 (human) (UniProt P18887). Description: fluorescence titration. The conditions noted are these: 50 mM HEPES pH 8.0, 100 mM NaCl, 4 mM DTT (+10 mM EDTA for APE1), labelled protein from 20 nM, temperature not stated.
The target of series [4] is X-ray repair cross-complementing protein 1 (human) (UniProt P18887). In words: dynamic light scattering; individual proteins or equimolar mixtures at 6 μM; 25 mM HEPES pH 7.5, 100 mM NaCl, 1 mM DTT; 24°C; hydrodynamic radius compared with predicted values.
Series [5] shares this target. Description: other fluorescence titration; TAF-labelled XRCC1 at 40 nM (fixed) titrated with the unlabelled partner; 50 mM HEPES pH 8.0, 100 mM NaCl, 4 mM DTT; EC50 from a four-parameter logistic fit, apparent.
Series [6] deals with apurinic/apyrimidinic endonuclease 1 (human) (UniProt P27695). In words: other fluorescence titration; FAM-labelled protein at 40 nM (fixed) titrated with the unlabelled partner; 50 mM HEPES pH 8.0, 100 mM NaCl, 4 mM DTT; excitation 485 nm, emission 520 nm; EC50 from a four-parameter logistic fit, an apparent equilibrium dissociation constant.
The target in series [7] is FAM-labeled human apurinic/apyrimidinic endonuclease 1 (human) (UniProt P27695). Description: other fluorescence titration; 40 nM FAM-APE1 premixed with 160 nM AP-DNA, titrated with unlabeled partner; 50 mM HEPES pH 8.0, 100 mM NaCl, 4 mM DTT, 10 mM EDTA; EC50 from four-parameter fit, apparent.
For series [8] the target is unchanged. In words: other fluorescence titration; 40 nM FAM-APE1 premixed with 160 nM gap-DNA, titrated with unlabeled partner; 50 mM HEPES pH 8.0, 100 mM NaCl, 4 mM DTT, 10 mM EDTA; EC50 from four-parameter fit, apparent.
The target is the same in series [9]. Description: other fluorescence titration; 40 nM FAM-APE1 premixed with 160 nM incised AP-DNA, titrated with unlabeled partner; 50 mM HEPES pH 8.0, 100 mM NaCl, 4 mM DTT, 10 mM EDTA; EC50 from four-parameter fit, apparent.
Series [10] addresses apurinic/apyrimidinic endonuclease 1 (human) (UniProt P27695). Description: dynamic light scattering; individual proteins or equimolar mixtures at 6 μM; 25 mM HEPES pH 7.5, 100 mM NaCl, 1 mM DTT; 24°C; hydrodynamic radius compared with predicted values.
In series [11] the target is DNA polymerase β (rat) (UniProt P06766). Description: FRET or BRET; FAM-labelled protein (donor, 40 nM, fixed) titrated with the TMR-labelled partner (acceptor); corrected for acceptor signal; E = 1 - Fda/Fd; EC50 is that of the TMR-labelled partner; 50 mM HEPES pH 8.0, 100 mM NaCl, 4 mM DTT; apparent. In general terms: Bioluminescence resonance energy transfer reports proximity on the nanometre scale.

Series [12] concerns the target apurinic/apyrimidinic endonuclease 1 (human) (UniProt P27695). Described as above.

Regarding “GGCGATTAAGTTGGGTAACGTCAGGGTCTTCC (double strand) [ds-DNA]”, the K half was 100 nM in series [1], 160 nM in series [2] and 110 nM in [3].
For the substance nick-pUC19, the K half in [2] (nicked by N.Bst9I) came out at 30 nM; in series [3] (TAF-XRCC1, n 0.60, nicked by N.Bst9I), 10 nM.
“GGCGATTAAGTTGGGNAACGTCAGGGTCTTCC / GGAAGACCCTGACGTTACCCAACTTAATCGCC [AP-DNA]” registered a K half in series [2] (N16 of strand 1 = THF abasic site) of 20 nM.
Turning to “X-ray repair cross-complementing protein 1 (from UniProt P18887 1-633) (natural protein)”, the stoichiometry N in [4] is 2. Also, the concentration for a half-maximal effect (EC50) worked out at 73 nM in series [5] and 76 nM in series [6].
For “human X-ray repair cross-complementing protein 1 (from UniProt P18887 1-633) (natural protein)”, the EC50 in series [7] is 78 nM; in [8] it was 51 nM; in series [9], 83 nM.
pUC19: the K half in series [2] came to 2400 nM; in [3] (TAF-XRCC1, n 0.63), 1700 nM.
Consider “apurinic/apyrimidinic endonuclease 1 (from UniProt P27695 1-318) (enzyme)”, for which the stoichiometry N in [10] and in series [6] was 2 in each case. Also, the EC50 in series [11] was found to be 90 nM; in series [12], 130 nM; in [6], 120 nM. Also, the FRET efficiency E in [11] was determined as 0.37.
